This is an account of results in patent US7169559B2, “LDL receptor-related proteins 1 and 2 and treatment of bone or cartilage conditions” (Fonterra Corporate Research and Development Ltd., priority 2002, dated 2007).

Assay [1] relates to cultured osteoblastic cells. The experiment in a line: osteoblast proliferation (mitogenic/osteogenic effect). The class given is cell-based, rat, mouse, and human. As for the experimental part:
(§1) Osteoblasts were isolated from 20-day old fetal rat calvariae as previously described (Cornish et al. (1999) Amer. J. Physiol-Endocrinol. Metab. 277:E779–E783). Briefly, calvariae were excised and the frontal and parietal bones, free of suture and periosteal tissue, were collected. After washing, the calvariae were treated twice with 3 mL of 1 mg/mL collagenase for 7 minutes at 37° C. After discarding the supernatants from these two digestions, the calvariae were treated a further twice with 3 mL of 2 mg/mL collagenase (30 mins, 37° C.). The supernatants of the latter two digestions were pooled, centrifuged, and the cells washed. Cells were grown to confluence and then subcultured into 24 well plates. Cells were growth arrested in minimum essential medium (MEM)/0.1% bovine serum albumin for 24 h before harvest.
(§2) The human osteoblast-like osteosarcoma cell line SaOS-2 was maintained in DMEM (GIBCO 12100-046) supplemented with 2.2 g/L NaHCO3, 10% FBS, and 10 ml/L penicillin-streptomycin (GIBCO 15140-122). Cells were plated in 75 cm^2 flasks and when confluent used for total RNA isolation or proliferation assays.

Assay [2] deals with primary rat osteoblastic cells. In words: endocytosis of lactoferrin observed under confocal microscopy. The assay is classed as cell-based. As for the experimental part: as §1
The test system of assay [3] is p42/44 MAP kinase signaling pathway. In words: p42/44 MAP kinase signaling / phosphorylation in osteoblastic cells. The class given is cell-based.
A further assay deals with chondrocytes. In words: chondrocyte mitogenesis. The assay is classed as cell-based.
For a further assay, the system named is osteoblast. In words: osteoblast differentiation / mineralized bone nodules in long-term osteoblast cultures. The class given is cell-based.
A further assay deals with primary rat osteoblasts. In words: apoptosis induced by serum withdrawal. The assay is classed as cell-based. As for the experimental part: as §1
A further assay has as its system osteoclastogenesis. In words: murine bone marrow culture assay of osteoclastogenesis. The class given is cell-based.
In a further assay the test system is mature osteoclasts. In words: bone-resorbing activity of mature osteoclasts. The class given is cell-based.
Assay [4] can be described thus: unilateral local hemicalvarial injection in adult mice. The assay is classed as in vivo.
For the next assay, the target named is LRP-1 (Homo sapiens, UniProt Q07954). In words: binding of lactoferrin to LRP-1.
In a further assay the target is LRP-2/megalin (Homo sapiens, UniProt P98164). In words: binding of lactoferrin to LRP-2.
A further assay has as its system SaOS-2 cells. The experiment in a line: proliferation in SaOS-2 cells. The class given is cell-based, human. As to conditions: only LRP-1 is expressed in SaOS-2 cells. As for the experimental part: as §2
For the next assay, the system named is LRP-1-null fibroblasts. The experiment in a line: proliferation in LRP-1-null versus LRP-1+/+ fibroblasts. The class given is cell-based.

Chain of LRP-2/megalin (P98164 26-4655): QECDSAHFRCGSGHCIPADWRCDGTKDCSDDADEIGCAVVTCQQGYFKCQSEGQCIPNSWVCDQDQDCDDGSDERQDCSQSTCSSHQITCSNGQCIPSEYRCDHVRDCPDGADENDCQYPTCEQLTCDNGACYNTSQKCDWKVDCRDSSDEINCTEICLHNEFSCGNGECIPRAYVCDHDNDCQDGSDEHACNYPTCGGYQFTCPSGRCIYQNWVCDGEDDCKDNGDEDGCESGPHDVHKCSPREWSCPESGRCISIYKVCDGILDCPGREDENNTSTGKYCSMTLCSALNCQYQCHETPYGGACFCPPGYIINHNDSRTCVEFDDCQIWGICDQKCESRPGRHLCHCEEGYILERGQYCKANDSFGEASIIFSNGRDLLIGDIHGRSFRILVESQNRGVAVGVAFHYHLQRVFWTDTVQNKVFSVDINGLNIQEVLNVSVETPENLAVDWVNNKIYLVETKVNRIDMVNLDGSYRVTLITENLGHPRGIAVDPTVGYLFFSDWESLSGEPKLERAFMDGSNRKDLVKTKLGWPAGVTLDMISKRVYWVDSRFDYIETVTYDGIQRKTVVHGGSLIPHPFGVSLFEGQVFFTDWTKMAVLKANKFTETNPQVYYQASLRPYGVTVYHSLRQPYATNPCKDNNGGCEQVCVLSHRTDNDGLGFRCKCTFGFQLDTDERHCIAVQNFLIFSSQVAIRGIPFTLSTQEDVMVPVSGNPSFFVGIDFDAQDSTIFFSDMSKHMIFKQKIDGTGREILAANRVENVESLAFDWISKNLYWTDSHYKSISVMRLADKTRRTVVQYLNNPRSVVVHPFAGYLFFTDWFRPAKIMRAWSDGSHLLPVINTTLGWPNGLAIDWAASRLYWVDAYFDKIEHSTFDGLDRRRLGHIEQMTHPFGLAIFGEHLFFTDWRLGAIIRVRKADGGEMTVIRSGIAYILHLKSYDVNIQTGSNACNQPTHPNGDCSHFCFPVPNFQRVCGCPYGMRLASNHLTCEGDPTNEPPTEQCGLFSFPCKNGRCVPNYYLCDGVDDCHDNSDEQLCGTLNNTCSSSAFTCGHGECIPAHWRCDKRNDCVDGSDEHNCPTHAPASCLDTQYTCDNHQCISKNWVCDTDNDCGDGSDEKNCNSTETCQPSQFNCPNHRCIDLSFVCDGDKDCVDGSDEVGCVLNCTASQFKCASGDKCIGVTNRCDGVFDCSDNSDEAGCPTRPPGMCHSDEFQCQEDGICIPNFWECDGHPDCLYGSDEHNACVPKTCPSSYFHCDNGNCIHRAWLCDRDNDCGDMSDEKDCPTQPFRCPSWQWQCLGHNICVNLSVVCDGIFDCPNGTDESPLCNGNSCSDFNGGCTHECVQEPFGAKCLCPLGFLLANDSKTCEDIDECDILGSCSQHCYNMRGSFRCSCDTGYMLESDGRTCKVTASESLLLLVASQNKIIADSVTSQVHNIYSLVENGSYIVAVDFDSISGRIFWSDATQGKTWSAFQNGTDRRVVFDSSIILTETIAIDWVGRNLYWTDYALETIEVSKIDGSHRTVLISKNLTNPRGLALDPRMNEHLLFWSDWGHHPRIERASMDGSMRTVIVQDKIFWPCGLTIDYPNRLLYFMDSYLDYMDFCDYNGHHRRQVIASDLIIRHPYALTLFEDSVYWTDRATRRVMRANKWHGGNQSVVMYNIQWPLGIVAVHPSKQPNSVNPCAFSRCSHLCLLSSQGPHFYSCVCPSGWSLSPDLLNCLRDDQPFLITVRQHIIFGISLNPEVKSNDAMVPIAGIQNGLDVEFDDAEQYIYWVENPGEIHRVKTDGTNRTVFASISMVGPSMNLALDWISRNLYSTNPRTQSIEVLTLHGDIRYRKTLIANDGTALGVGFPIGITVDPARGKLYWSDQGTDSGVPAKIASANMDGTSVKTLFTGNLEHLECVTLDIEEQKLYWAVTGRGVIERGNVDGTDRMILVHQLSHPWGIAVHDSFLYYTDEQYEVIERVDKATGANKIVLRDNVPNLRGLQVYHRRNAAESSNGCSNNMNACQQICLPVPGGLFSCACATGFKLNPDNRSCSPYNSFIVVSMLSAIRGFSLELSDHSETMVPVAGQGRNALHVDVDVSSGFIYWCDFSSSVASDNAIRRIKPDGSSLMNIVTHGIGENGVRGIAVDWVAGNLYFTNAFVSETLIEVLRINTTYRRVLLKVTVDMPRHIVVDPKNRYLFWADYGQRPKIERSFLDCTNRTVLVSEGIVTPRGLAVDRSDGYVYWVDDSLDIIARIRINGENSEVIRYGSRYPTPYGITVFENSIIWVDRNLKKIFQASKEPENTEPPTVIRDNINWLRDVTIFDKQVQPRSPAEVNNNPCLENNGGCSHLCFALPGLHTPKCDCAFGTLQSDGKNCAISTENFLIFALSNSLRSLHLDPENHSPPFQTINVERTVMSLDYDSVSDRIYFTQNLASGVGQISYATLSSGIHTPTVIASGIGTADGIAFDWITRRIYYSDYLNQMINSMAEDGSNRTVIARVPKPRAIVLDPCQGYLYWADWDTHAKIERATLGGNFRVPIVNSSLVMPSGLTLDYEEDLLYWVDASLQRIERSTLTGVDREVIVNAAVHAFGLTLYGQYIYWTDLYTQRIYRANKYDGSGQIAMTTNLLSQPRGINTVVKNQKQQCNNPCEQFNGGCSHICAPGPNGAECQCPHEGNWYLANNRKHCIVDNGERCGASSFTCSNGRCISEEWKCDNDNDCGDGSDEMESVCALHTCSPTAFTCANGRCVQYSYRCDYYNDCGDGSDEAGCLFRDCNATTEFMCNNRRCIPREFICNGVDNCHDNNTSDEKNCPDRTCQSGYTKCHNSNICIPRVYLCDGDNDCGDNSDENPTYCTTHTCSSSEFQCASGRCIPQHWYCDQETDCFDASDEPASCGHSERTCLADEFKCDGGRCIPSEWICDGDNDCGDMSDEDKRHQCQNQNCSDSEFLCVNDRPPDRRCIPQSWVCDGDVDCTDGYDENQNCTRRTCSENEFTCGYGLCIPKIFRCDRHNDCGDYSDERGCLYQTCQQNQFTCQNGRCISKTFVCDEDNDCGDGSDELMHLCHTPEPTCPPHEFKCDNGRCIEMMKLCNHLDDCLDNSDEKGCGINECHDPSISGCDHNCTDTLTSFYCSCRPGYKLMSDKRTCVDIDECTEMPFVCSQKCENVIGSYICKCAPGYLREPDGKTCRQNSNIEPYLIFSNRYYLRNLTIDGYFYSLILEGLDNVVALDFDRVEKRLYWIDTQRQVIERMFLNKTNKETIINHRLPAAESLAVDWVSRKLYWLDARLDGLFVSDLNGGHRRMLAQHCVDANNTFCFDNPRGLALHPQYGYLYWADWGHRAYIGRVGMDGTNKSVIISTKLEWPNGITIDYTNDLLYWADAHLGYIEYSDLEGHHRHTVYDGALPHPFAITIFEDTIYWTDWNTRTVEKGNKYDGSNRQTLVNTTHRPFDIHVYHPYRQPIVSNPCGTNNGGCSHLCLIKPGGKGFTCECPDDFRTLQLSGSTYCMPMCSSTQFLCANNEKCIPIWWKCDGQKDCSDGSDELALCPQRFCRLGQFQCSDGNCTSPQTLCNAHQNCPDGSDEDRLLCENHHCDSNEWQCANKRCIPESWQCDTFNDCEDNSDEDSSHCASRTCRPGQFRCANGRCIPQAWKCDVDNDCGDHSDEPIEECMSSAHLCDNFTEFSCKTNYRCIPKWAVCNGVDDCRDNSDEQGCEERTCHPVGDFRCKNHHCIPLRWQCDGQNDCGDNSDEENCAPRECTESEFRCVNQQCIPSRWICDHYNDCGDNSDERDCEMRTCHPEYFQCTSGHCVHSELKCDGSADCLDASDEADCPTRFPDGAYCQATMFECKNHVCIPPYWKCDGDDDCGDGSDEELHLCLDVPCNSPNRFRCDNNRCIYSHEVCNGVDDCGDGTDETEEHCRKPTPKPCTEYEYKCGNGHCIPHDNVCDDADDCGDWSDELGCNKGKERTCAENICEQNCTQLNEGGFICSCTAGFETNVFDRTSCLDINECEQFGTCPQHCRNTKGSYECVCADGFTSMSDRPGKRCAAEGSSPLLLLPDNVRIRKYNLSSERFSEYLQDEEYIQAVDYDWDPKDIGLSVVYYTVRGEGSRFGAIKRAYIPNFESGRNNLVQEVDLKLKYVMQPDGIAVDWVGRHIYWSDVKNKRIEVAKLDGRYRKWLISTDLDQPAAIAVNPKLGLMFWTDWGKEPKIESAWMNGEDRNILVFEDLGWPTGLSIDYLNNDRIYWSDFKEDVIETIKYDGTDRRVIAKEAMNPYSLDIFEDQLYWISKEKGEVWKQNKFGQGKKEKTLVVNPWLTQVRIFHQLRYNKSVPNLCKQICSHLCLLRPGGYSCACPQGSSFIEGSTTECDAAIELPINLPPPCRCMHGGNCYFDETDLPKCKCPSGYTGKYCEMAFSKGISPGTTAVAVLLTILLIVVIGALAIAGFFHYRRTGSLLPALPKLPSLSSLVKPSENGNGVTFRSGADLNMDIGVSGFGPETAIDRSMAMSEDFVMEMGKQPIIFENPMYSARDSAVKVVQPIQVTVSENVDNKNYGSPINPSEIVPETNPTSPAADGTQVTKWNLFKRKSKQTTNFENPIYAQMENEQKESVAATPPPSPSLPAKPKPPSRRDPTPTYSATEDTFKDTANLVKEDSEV

B1: RAP: the LRP-1/2-specific inhibitor, receptor-associated protein (RAP) (protein, UniProt P30533 35-357, looked up)
Alpha-2-macroglobulin …: YSREKNQPKPSPKRESGEEFRMEKLNQLWEKAQRLHLPPVRLAELHADLKIQERDELAWKKLKLDGLDEDGEKEARLIRNLNVILAKYGLDGKKDARQVTSNSLSGTQEDGLDDPRLEKLWHKAKTSGKFSGEELDKLWREFLHHKEKVHEYNVLLETLSRTEEIHENVISPSDLSDIKGSVLHSRHTELKEKLRSINQGLDRLRRVSHQGYSTEAEFEEPRVIDLWDLAQSANLTDKELEAFREELKHFEAKIEKHNHYQKQLEIAHEKLRHAESVGDGERVSRSREKHALLEGRTKELGYTVKKHLQDLSGRISRARHNEL
With B1, the “effect on lactoferrin-induced osteoblast proliferation” value in [1] (in the presence of lactoferrin) is recorded as “blocked”. Further, the “effect on endocytosis of lactoferrin” value in assay [2] (primary rat osteoblastic cells) is “abrogates this process”. Further, the “effect on lactoferrin-induced MAP kinase phosphorylation” value in [3] (in the presence of lactoferrin) is recorded as “blocked”.

B2: Lactoferrin: an 80 kDa glycoprotein present in milk and epithelial secretions; osteoblast growth factor present in fractionated bovine milk (protein, UniProt P24627 20-708, looked up)
Lactotransferrin: APRKNVRWCTISQPEWFKCRRWQWRMKKLGAPSITCVRRAFALECIRAIAEKKADAVTLDGGMVFEAGRDPYKLRPVAAEIYGTKESPQTHYYAVAVVKKGSNFQLDQLQGRKSCHTGLGRSAGWIIPMGILRPYLSWTESLEPLQGAVAKFFSASCVPCIDRQAYPNLCQLCKGEGENQCACSSREPYFGYSGAFKCLQDGAGDVAFVKETTVFENLPEKADRDQYELLCLNNSRAPVDAFKECHLAQVPSHAVVARSVDGKEDLIWKLLSKAQEKFGKNKSRSFQLFGSPPGQRDLLFKDSALGFLRIPSKVDSALYLGSRYLTTLKNLRETAEEVKARYTRVVWCAVGPEEQKKCQQWSQQSGQNVTCATASTTDDCIVLVLKGEADALNLDGGYIYTAGKCGLVPVLAENRKSSKHSSLDCVLRPTEGYLAVAVVKKANEGLTWNSLKDKKSCHTAVDRTAGWNIPMGLIVNQTGSCAFDEFFSQSCAPGADPKSRLCALCAGDDQGLDKCVPNSKEKYYGYTGAFRCLAEDVGDVAFVKNDTVWENTNGESTADWAKNLNREDFRLLCLDGTRKPVTEAQSCHLAVAPNHAVVSRSDRAAHVKQVLLHQQALFGKNGKNCPDKFCLFKSETKNLLFNDNTECLAKLGGRPTYEEYLGTEYVTAIANLKKCSTSPLLEACAFLTR
Take B2: the “proliferation of cultured osteoblastic cells” value in [1] (cells of rat, mouse, and human origin) is “stimulates proliferation of cultured osteoblastic cells of rat, mouse, and human origin potently and in a dose-dependent manner”. The mitogenic to chondrocytes result with chondrocytes is “mitogenic to chondrocytes”. Moreover, in the assay with osteoblast, the osteoblast differentiation result was “capable of inducing osteoblast differentiation”. In addition, the “number of mineralized bone nodules” value in the assay on osteoblast (long-term osteoblast cultures) is “significantly increase”. In addition, the “apoptosis induced by serum withdrawal” value in the assay with primary rat osteoblasts is recorded as “inhibits apoptosis”. The osteoclastogenesis entry with osteoclastogenesis is recorded as “strongly inhibits osteoclastogenesis”. Moreover, the “bone-resorbing activity of mature osteoclasts” value in the assay on mature osteoclasts is given as “does not affect”. In assay [4], the bone area entry is “dose-dependent and substantial increases”; the “indices of bone formation” value is “dose-dependent and substantial increases”. For the same molecule, the “binding to LRP-1” value with LRP-1 was “has been found to bind”. Besides, the “binding to LRP-2/megalin” value in the assay with LRP-2/megalin is listed as “has been found to bind”. In addition, in [2], the “endocytosis by primary rat osteoblastic cells” value is on record as “is endocytosed”. The “activation of p42/44 MAP kinase signaling pathway” value in [3] (osteoblastic cells) was “activates the p42/44 MAP kinase signaling pathway”. In the assay on SaOS-2 cells, the “proliferation in SaOS-2 cells” value is on record as “induces proliferation”. The “proliferation in LRP-1-null fibroblasts compared with LRP-1+/+ cells” value with LRP-1-null fibroblasts is recorded as “substantially less marked”.
